Consider one molecule from patent US20190382503A1 (published 2019).

In assay [1] the target is T1, human 5T4 on cells (human, UniProt Q13641 32-420).
T1 construct: Human 5T4 on transfected cells (CHO-K1, CT26, B16) or endogenous on human tumour lines; the cell line is named under assay; also called trophoblast glycoprotein; TPBG
T1 sequence: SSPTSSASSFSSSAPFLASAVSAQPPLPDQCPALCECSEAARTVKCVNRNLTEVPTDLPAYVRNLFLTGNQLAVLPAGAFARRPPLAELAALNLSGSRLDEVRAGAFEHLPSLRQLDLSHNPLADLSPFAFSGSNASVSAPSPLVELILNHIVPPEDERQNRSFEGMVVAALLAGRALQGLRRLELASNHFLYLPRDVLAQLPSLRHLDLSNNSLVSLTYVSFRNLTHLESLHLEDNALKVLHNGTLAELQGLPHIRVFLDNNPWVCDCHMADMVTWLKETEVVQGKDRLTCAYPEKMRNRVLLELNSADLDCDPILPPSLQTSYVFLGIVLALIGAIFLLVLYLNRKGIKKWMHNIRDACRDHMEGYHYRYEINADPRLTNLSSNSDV
Kind of assay: flow cytometry, B16-hu5T4 cells, streptavidin-PE, normalized MFI of 2 pooled experiments. On the procedure: (§1) FACS staining and analysis of 5T4-expressing cell lines: Prior to the FACS staining, all cell lines were characterized for their 5T4 expression levels using a receptor density kit (Quantum Simply Cellular, anti-human IgG, Bangs Laboratories, Inc). Adherent cell lines were cultured according to their supplier's instructions and were harvested from their cell culture flasks using Trypsin/EDTA, counted in R10 medium in a Burker chamber, and diluted in FACS buffer (PBS+0.5% BSA, 0.05% NaN₃) to a concentration of 4×10⁶ cells/mL. 50 μL (0.20×10⁶) of cell solution was added to a 96-well FACS staining plate (Falcon #351190). Cells were incubated for 20 min in 4° C. with 50 μL of the biotinylated ALG.APV-210 (2× final concentration). The antibodies were added in a serial dilution starting at 20 μg/mL titrating down in a 12 step 1/2 dilution down to 0.010 μg/mL. […] Cells were analysed for ALG.APV-210 binding using flow cytometry (FACSVerse) by gating on single cells. MFI values (secondary antibody only subtracted) from 1 out of 2 independent experiments, as well as normalized data and EC₅₀-values of pooled data from 2 experiments were determined and plotted using GraphPad Prism 7, non-linear regression log (agonist) vs. normalized response-variable slope.

The target in assay [2] is T2, human CD137 on cells (human, UniProt Q07011 24-255).
T2 construct: Human CD137 on CHO-K1 transfectants, Jurkat/CD137 reporter cells or CD3-stimulated primary human CD8 T cells; cells named under assay; also called 4-1BB; TNFRSF9
Kind of assay: flow cytometry, MFI of the CD137 positive CD8 T cells. As to the method: (§2) FACS staining and analysis of CD8 T cells: Following 48 h of incubation with or without CD3, human and cynomolgus PBMC were harvested, pooled, recounted and diluted in FACS buffer (PBS+0.5% BSA, 0.05% NaN₃) to a concentration of 5×10⁶ cells/mL. 50 μL (0.25×10⁶ cells) of cell solution was added to a 96-well FACS staining plate (Falcon #351190). Following 10 min of Fc-blocking in RT using Beriglobin (hIgG, 200 μg/mL), cells were washed in FACS buffer and then incubated for 1 h in 4° C. with 100 μL of the biotinylated ALG.APV-210 or negative control. […] Cells were analysed for ALG.APV-210 binding using flow cytometry by gating on viable, single cells expressing CD3 and CD8. MFI values (FMO subtracted) from 2 independent experiments as well as normalized pooled data from 2 experiments and EC₅₀-values were determined and plotted using GraphPad Prism 7, non-linear regression log (agonist) vs. normalized response-variable slope, n=6 donors/group.
(§3) ALG.APV-210 binding was also assessed by looking at the percentage of CD8 T cells bound by ALG.APV-210. […] The binding EC₅₀ values were also calculated on the MFI of the CD137 positive cells, and the results was an EC₅₀ of 0.17 nM for binding to human CD137 and 0.20 nM for cynomolgus monkey CD137.
A general note: In flow cytometry, cells or beads pass a laser one at a time.

The target in assay [3] is T3, cynomolgus CD137 on cells (cynomolgus macaque, UniProt A9YYE7 24-254).
T3 construct: whole, on cells; also called CHO-K1/cynomolgus CD137; cynomolgus monkey CD137
The description is as above. On the procedure:
as §2, §3

The target in assay [4] is T1, human 5T4 on cells. Kind of assay: flow cytometry, BxPC-3 cells, streptavidin-PE, normalized MFI of 2 pooled experiments. On the procedure: as §1
The target in assay [5] is T2, human CD137 on cells. Kind of assay: flow cytometry, CD3-stimulated primary human CD8 T cells (summary of the study). As to the method: as §2, with “control. The antibodies were added in a serial dilution starting either at 5 μg/mL titrating down in a 12 step 1/3 dilution down to 0.0003 μg/mL (exp 1) or 1 μg/mL titrating down in a 12 step 1/2 dilution down to 0.0005 μg/mL (exp 2).” for “control.”

In assay [6] the target is T1, human 5T4 on cells. Kind of assay: flow cytometry, HT-29 cells, streptavidin-PE, normalized MFI of 2 pooled experiments. On the procedure: as §1
The target in assay [7] is T1, human 5T4 on cells. Kind of assay: flow cytometry, SKOV-3 cells, streptavidin-PE, normalized MFI of 2 pooled experiments. As to the method: Biotinylation: In order to detect ALG.APV-210 binding to 5T4-expressing cell lines, ALG.APV-210 was first biotinylated. The quality of the biotinylated protein and the impact on binding to its targets was assessed using ELISA.
as §1, with “concentration).” for “concentration). The antibodies were added in a serial dilution starting at 20 μg/mL titrating down in a 12 step 1/2 dilution down to 0.010 μg/mL.”

T2 sequence (Q07011 24-255 limits assumed): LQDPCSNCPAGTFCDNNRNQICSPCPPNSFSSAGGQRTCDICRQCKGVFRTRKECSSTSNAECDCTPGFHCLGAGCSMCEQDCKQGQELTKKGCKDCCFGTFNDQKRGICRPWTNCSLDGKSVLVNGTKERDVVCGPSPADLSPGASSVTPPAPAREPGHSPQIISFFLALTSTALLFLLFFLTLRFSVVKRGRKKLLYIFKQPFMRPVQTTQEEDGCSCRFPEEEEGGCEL
T3 sequence (A9YYE7 entry or part of it): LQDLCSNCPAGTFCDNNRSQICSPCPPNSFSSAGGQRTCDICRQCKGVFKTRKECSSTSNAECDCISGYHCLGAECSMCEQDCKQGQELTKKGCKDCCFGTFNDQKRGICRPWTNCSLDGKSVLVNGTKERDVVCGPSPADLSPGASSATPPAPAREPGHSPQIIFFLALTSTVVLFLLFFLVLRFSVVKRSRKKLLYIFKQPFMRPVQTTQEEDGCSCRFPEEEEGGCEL

B1: biotinylated ALG.APV-210 (bispecific antibody)
chain: EVQLLESGGGLVQPGGSLRLSCAASGFTFSHGSMYWVRQAPGKGLEWVSSISSGSGSTYYADSVKGRFTISHDNSKNTLYLQMNSLRAEDTAVYYCARSSYYGSYYSIDYWGQGTLVTVSSGGGGSGGGGSGGGGSGGGGSDIQMTQSPSSLSASVGDRVTITCRASQSISSYLNWYQQKPGKAPKLLIYAASSLQSGVPSRFSGSGSGTDFTLTISSLQPEDFATYYCQQYYDNLPTFGQGTKLEIKEPKSSDKTHTCPPCPAPEAAGAPSVFLFPPKPKDTLMISRTPEVTCVVVDVSHEDPEVKFNWYVDGVEVHNAKTKPREEQYNSTYRVVSVLTVLHQDWLNGKEYKCAVSNKALPAPIEKTISKAKGQPREPQVYTLPPSRDELTKNQVSLTCLVKGFYPSDIAVEWESNGQPENNYKTTPPVLDSDGSFFLYSKLTVDKSRWQQGNVFSCSVMHEALHNHYTQKSLSLSPGSGGGGSGGGGSGGGGSPSEVQLLESGGGLVQPGGSLRLSCAASGFTFSSYAMSWVRQAPGKCLEWVSAISGSGGSTYYADSVKGRFTISRDNSKNTLYLQMNSLRAEDTAVYYCARYYGGYYSAWMDYWGQGTLVTVSSGGGGSGGGGSGGGGSGGGGSDIQMTQSPSSLSASVGDRVTITCRASQSISSFLNWYQQKPGKAPKLLIYAASSLQSGVPSRFSGSGSGTDFTLTISSLQPEDSATYYCQQTYGYLHTFGCGTKLEIKR
modifications: biotinylated (sites not given)
A word on the EC50: it is the midpoint of the concentration-response curve. Lower therefore signals higher potency in that assay. Regarding B1, the 50% effective concentration (EC50) in assay [1] was determined as 14 nM; in assay [2] it was 0.17 nM; in assay [3], 0.2 nM; in assay [4], 20 nM; in assay [5], 0.2 nM; in assay [6] it was 12 nM. In assay [7], this molecule had an EC50 of 15 nM.
